For test [1], the target named is T1, recombinant Prdx1 C173A (resolving cysteine mutant) (human, UniProt Q06830 1-199, C173A).
T1 construct: peroxiredoxin-1 (Prdx1) with C173A; purified by the same protocol as Prdx1 WT; source: E. coli BL21, purified (Phenyl Sepharose, SP Sepharose, Superdex 75)
T1 sequence (looked up): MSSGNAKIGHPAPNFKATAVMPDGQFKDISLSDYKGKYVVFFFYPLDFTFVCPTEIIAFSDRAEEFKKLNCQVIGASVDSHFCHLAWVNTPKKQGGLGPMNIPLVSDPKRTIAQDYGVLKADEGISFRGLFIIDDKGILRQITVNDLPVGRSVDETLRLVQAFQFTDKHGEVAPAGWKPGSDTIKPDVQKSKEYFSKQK
The test can be described thus: BLI; Octet Red 96; His-tagged MBP-ASK1-TBD loaded on Ni2+-NTA sensors at 0.45 µM; Prdx as analyte at 1 µM or at different concentrations for kon and koff; 10 µM H2O2 (oxidizing condition); 25 mM Tris/HCl pH 7.4, 25 mM NaCl, 1% BSA, 0.05% Tween 20, 0.01 mM maltose; His-tagged MBP as reference; the paper takes the bond to be a mixed disulfide. Conditions: both partners purified.

Test [2] concerns the target T2, recombinant wild-type peroxiredoxin-1 (Prdx1 WT) (human, UniProt Q06830 1-199).
T2 construct: peroxiredoxin-1 (Prdx1); In the BLI the protein was pre-reduced with DTT, desalted and then met the sensor in 10 µM H2O2 or 10 µM DTT; also called pET17-Prdx1; source: E. coli BL21, purified (Phenyl Sepharose, SP Sepharose, Superdex 75)
T2 sequence (looked up): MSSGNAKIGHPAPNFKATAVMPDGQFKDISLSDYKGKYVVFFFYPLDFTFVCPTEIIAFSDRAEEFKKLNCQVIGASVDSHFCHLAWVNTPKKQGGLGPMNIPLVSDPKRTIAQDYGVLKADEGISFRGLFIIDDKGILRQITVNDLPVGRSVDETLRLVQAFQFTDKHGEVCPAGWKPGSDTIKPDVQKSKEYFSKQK
The description is as above. Conditions: both partners purified.

B1: 6xHis-MBP-ASK1-TBD (thioredoxin-binding domain of ASK1 with N-terminal His tag and maltose binding protein) (domain or fragment)
chain: SRRTTVAYVINEASQGQLVVAESEALQSLREACETVGATLETLHFGKLDFGETTVLDRFYNADIAVVEMSDAFRQPSLFYHLGVRESFSMANNIILYCDTNSDSLQSLKEIICQKNTMCTGNYTFVPYMITPHNKVYCCDSSFMKGLTELMQPNFELLLGPICLPLVDRFIQLLKVAQASSSQYFRESILNDIRKARNLYTGKELAAELARIRQR
modifications: Limits are not given; 88-302 is the usual recombinant ASK1-TBD construct and spans the listed TBD cysteines 120-250. His6-MBP-TEV carrier omitted. Assayed with 10 uM H2O2 (oxidizing) or 10 uM DTT …
For B1, in test [1], the dissociation rate constant (koff) amounted to 0.00228 s⁻¹ and the kon came out at 7200 M⁻¹ s⁻¹. In test [2], the koff came out at 0.0002 s⁻¹ and the association rate constant (kon) worked out at 32700 M⁻¹ s⁻¹.

The record behind these values is publication PMC8300624, “Prdx1 Interacts with ASK1 upon Exposure to H2O2 and Independently of a Scaffolding Protein” (Antioxidants, 2021).
